According to patent US20210324359A1, “USE OF GRAM-NEGATIVE LYSIN-ANTIMICROBIAL PEPTIDE (AMP) POLYPEPTIDE CONSTRUCTS IN TREATING ENDOCARDITIS” (priority 2020, published 2021):
Like-named read-outs stand apart in the source and are kept apart here.

Tests used:
[1] = tested on: Pseudomonas aeruginosa strain CFS-1292 (meropenem resistant); details: for Fold Increase (MIC) in presence of cations: CFS-1292; for MIC in 25% CAA: strain CFS-1292, no added cations
Protocol: The activity of selected GN lysins and constructs in the presence of divalent cations was evaluated, and the impact of divalent cations at physiological concentrations was examined in the MIC assay format.

[2] = tested on: P. aeruginosa isolate CFS-1292; test: MIC in CAA supplemented with a range of […] concentrations (Table 10); assay type: cell-based, Pseudomonas aeruginosa
P. aeruginosa = test: MIC, modified CLSI broth microdilution in CAA medium without or with […] human serum (Table 4); assay type: cell-based, Pseudomonas aeruginosa; details: for CAA MIC: CAA medium, no human serum; for CAA/HuS MIC: CAA supplemented with […] human serum; as to CAA/HuS MIC: CAA supplemented with 2.5% human serum
Text: 2015. […] Clinical and Laboratory Standards Institute, Wayne, Pa.

[3] = tested on: carbepenam-resistant clinical isolate WC-453; test: MIC in CAA without or with 25% human serum (Table 5); assay type: cell-based, Pseudomonas aeruginosa
Protocol: MIC values were determined using a modification of the standard broth microdilution reference method defined by the Clinical and Laboratory Standards Institute (CLSI), CLSI. […] Methods for Dilution Antimicrobial Susceptibility Tests for Bacteria That Grow Aerobically; Approved Standard-10th Edition. Clinical and Laboratory Standards Institute, Wayne, Pa.

[4] = tested on: P. aeruginosa strain WC-453; test: Time-kill assay in HEPES or CAA with 25% human serum (Tables 7, 8); assay type: cell-based, Pseudomonas aeruginosa; details: for bactericidal activity (CFU decrease of 3-Log10, 3 hours after the addition of lysin): 10 μg/mL, enumerated lysins in CAA/HuS, general statement for HEPES and CAA/HuS; for CAA/HuS (Log10 CFU/mL), 1 hr / CAA/HuS (Log10 CFU/mL), 3 hr: CAA + 25% human serum, lysin 10 μg/ml, WC-453
Protocol: Exponential phase bacteria were then pelleted and resuspended in 1/5 culture volume of 25 mM HEPES, pH 7.4 before a final adjustment to an optical density corresponding to a McFarland value of 0.5. […] All treatments were incubated at 37° C. with aeration. At time points before the addition of lysin (or buffer control) and at 1 hour and 3 hours intervals thereafter, culture samples were removed for quantitative plating on CAA agar plates.

[5] = tested on: biofilms formed by P. aeruginosa strain ATCC 17646; details: strain ATCC 17646 biofilm
Protocol: Biofilms are then washed and treated with e.g., a 2-fold dilution series of the lysin in TSBg at e.g., 37° C. for 24 hours. After treatment, wells are washed, air-dried at e.g., 37° C. and stained with e.g., 0.05% crystal violet for 10 minutes.

B1: GN156: GPRRPRRPGRRAPV introduced at the N terminus of GN4 (SEQ ID NO: 126) (protein)
chain: GPRRPRRPGRRAPVRTSQRGIDLIKSFEGLRLSAYQDSVGVWTIGYGTTRGVTRYMTITVEQAERMLSNDIQRFEPELDRLAKVPLNQNQWDALMSFVYNLGAANLASSTLLKLLNKGDYQGAADQFPRWVNAGGKRLDGLVKRRAAERALFLEPLS
[1]; 25% CAA + […] CaCl2 (high)
  Fold Increase (MIC) in presence of cations: 1 fold
[1]; 25% CAA + […] CaCl2 (low)
  Fold Increase (MIC) in presence of cations: 2 fold
[1]; 25% CAA + […] CaCl2 (medium)
  Fold Increase (MIC) in presence of cations: 2 fold
[1]; 25% CAA + […] CaCl2 and […] MgCl2
  Fold Increase (MIC) in presence of cations: 2 fold
[1]; 25% CAA + […] MgCl2 (high)
  Fold Increase (MIC) in presence of cations: 2 fold
[1]; 25% CAA + […] MgCl2 (low)
  Fold Increase (MIC) in presence of cations: 2 fold
[1]; 25% CAA + […] MgCl2 (medium)
  Fold Increase (MIC) in presence of cations: 2 fold
[1]
  MIC in 25% CAA: 2 µg/mL
[2]; 0.09% SURVANTA
  fold increase in MIC with SURVANTA: 1 fold
[2]; 0.19% SURVANTA
  fold increase in MIC with SURVANTA: 1 fold
[2]; 1.56% SURVANTA
  fold increase in MIC with SURVANTA: 2 fold
[2]; 3.15% SURVANTA
  fold increase in MIC with SURVANTA: 2 fold

B2: GN316: lysin obtained from Klebsiella phage 0507-KN2-1 (SEQ ID NO: 22) (protein)
chain: MAILKIGSKGLEVKNLQTSLNKIGFNLVADGIFGKATDNAVRAVQAGAGLVVDGIAGPKTMYAIRNAGESHQDHLTEADLIDAARELSVDLASIKAVNQVESRGTGFTKSGKIKTLFERHIMYKKLNAKFGQAKANALAQLYPTLVNAKAGGYTGGDAELERLHGAIAIDKDCAYESASYGLFQIMGFNCVICGYDNAEEMFNDFLTGERAQLMAFVKFIKADANLWKALKDKNWAEFARRYNGPAYAQNQYDTKLAAAYKSFS
modifications: (1)..(264) GN316 lysin
P. aeruginosa
  CAA MIC: 16 mg/mL
  CAA/HuS MIC: 0.125 mg/mL
[3]
  activity in CAA supplemented with human serum (25%): active
[3]; CAA
  CAA MIC: 16
[3]; CAA supplemented with 25% human serum
  CAA/HuS MIC: <0.0625
[1]
  MIC in 25% CAA: 4 µg/mL
[4]
  bactericidal activity (CFU decrease of 3-Log10, 3 hours after the addition of lysin): bactericidal activity
  CAA/HuS (Log10 CFU/mL), 1 hr: 5.1 Log10 CFU/mL
  CAA/HuS (Log10 CFU/mL), 3 hr: <3.7 Log10 CFU/mL
[5]
  MBEC: 1 µg/mL

B3: GN431: lysin obtained from Dickeya phage phiD3 (SEQ ID NO: 64) (protein)
chain: MAILKLGNRGTEVKALQDSLNKIGFTLVADGIFGKATENAVKTVQAGAGLVIDGIVGPKTSYAIRNAGEAHQDHLTEADLIEAANQLGVDLASVKAVNQVESRGTGFTKSGKIKTLFERHIMYKKLMAKFGQARANAMGQMYPTLVSPVAGGYTGGDAELDRLHAAINIDEDCAYESASYGLFQIMGFNCQVCGYANAKEMFNDFLTGERAHLMAFVKFIKADAKLWQALKDKNWAEFARRYNGPAYTKNQYDTKLAAAYNSFN
modifications: Dickeya phage phiD3
P. aeruginosa
  CAA MIC: 8 mg/mL
  CAA/HuS MIC: 0.0625 mg/mL
[1]
  MIC in 25% CAA: 2 µg/mL
[4]
  bactericidal activity (CFU decrease of 3-Log10, 3 hours after the addition of lysin): bactericidal activity
  CAA/HuS (Log10 CFU/mL), 1 hr: 5.8 Log10 CFU/mL
  CAA/HuS (Log10 CFU/mL), 3 hr: <3.7 Log10 CFU/mL
[5]
  MBEC: 1 µg/mL

B4: GN333: lysin obtained from Delftia sp. (SEQ ID NO: 28) (protein, listed as Delftia sp.)
chain: MALTEQDFQSAADDLGVDVASVKAVTKVESRGSGFLLSGVPKILFERHWMFKLLKRKLGRDPEINDVCNPKAGGYLGGQAEHERLDKAVKMDRDCALQSASWGLFQIMGFHWEALGYASVQAFVNAQYASEGSQLNTFVRFIKTNPAIHKALKSKDWAEFARRYNGPDYKKNNYDVKLAEAYQSFK
P. aeruginosa
  CAA MIC: 8 mg/mL
  CAA/HuS MIC: 0.06 mg/mL
[1]
  MIC in 25% CAA: 8 µg/mL
[4]
  bactericidal activity (CFU decrease of 3-Log10, 3 hours after the addition of lysin): bactericidal activity
  CAA/HuS (Log10 CFU/mL), 1 hr: 4.9 Log10 CFU/mL
  CAA/HuS (Log10 CFU/mL), 3 hr: <3.7 Log10 CFU/mL
[5]
  MBEC: 1 µg/mL

B5: GN329: lysin, SEQ ID NO: 26 (protein)
chain: MITDREYQQAAEMLGVDVPAIKAVTKVEAPVGGFQPTGEPTILYERHQMYRQLQAKGLPTEGHPPDLVNKVAGGYGKYSEQHAKLARAVKIDRDSALESCSWGMFQIMGYHWKLMGYPTLQAFVNAMYASEGAQMDAFCRFIKAQPTTHAALKAHDWAKFARLYNGPGYAKNKYDVKLEKAYAEASG
modifications: Pseudomonas phage KPP10
P. aeruginosa
  CAA MIC: 4 mg/mL
  CAA/HuS MIC: 0.25 mg/mL
[1]
  MIC in 25% CAA: 4 µg/mL
[4]
  bactericidal activity (CFU decrease of 3-Log10, 3 hours after the addition of lysin): bactericidal activity
  CAA/HuS (Log10 CFU/mL), 1 hr: 4.4 Log10 CFU/mL
  CAA/HuS (Log10 CFU/mL), 3 hr: <3.7 Log10 CFU/mL
[5]
  MBEC: 0.5 µg/mL

B6: GN357: lysin-AMP construct: TAGGTAGG linker and RR12Whydro C-terminal to GN316 lysin (SEQ ID NO: 38) (protein)
chain: MAILKIGSKGLEVKNLQTSLNKIGFNLVADGIFGKATDNAVRAVQAGAGLVVDGIAGPKTMYAIRNAGESHQDHLTEADLIDAARELSVDLASIKAVNQVESRGTGFTKSGKIKTLFERHIMYKKLNAKFGQAKANALAQLYPTLVNAKAGGYTGGDAELERLHGAIAIDKDCAYESASYGLFQIMGFNCVICGYDNAEEMFNDFLTGERAQLMAFVKFIKADANLWKALKDKNWAEFARRYNGPAYAQNQYDTKLAAAYKSFSTAGGTAGGRRLIRLWLRLLR
P. aeruginosa
  CAA MIC: 16 mg/mL
  CAA/HuS MIC: 0.25 mg/mL
[1]
  MIC in 25% CAA: 4 µg/mL
[4]
  bactericidal activity (CFU decrease of 3-Log10, 3 hours after the addition of lysin): bactericidal activity
  CAA/HuS (Log10 CFU/mL), 1 hr: 5.0 Log10 CFU/mL
  CAA/HuS (Log10 CFU/mL), 3 hr: <3.7 Log10 CFU/mL
[5]
  MBEC: 0.5 µg/mL
